T1: purified sIL-5Rα (Asp1-Asn313 of SEQ ID NO: 66) (Homo sapiens (Human), UniProt Q01344 21-333)
T1 construct: also called the purified sIL-5Rα
T1 sequence: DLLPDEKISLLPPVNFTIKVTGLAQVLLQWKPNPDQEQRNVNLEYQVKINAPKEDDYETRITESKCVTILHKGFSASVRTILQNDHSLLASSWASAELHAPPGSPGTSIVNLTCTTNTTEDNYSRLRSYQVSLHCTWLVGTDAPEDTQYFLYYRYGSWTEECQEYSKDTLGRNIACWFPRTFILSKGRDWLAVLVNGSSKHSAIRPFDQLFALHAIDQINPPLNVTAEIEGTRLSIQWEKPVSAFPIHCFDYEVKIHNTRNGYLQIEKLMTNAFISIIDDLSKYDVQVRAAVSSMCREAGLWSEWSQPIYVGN


biological target: T1, purified sIL-5Rα (Asp1-Asn313 of SEQ ID …); assay: BLI (Octet QKe), antibody on AHC sensor, purified sIL-5Rα in solution, 1:1 model
Method: Specifically, lx kinetic buffer was prepared by diluting 10× kinetic buffer (ForteBio, 18-1105) in PBS. […] Affinity was calculated with Octet Data Analysis software 11.0 in a 1:1 binding model.

Kd [nM] | koff [s⁻¹] | kon [M⁻¹ s⁻¹] | Binder
14.5 | 0.000329 | 22700 | 5R65 (antibody, V domains shown, IgG1 (variable regions in a pcDNA3.4 vector encoding IgG1 constant regions); also called anti-IL-5Rα humanized antibody 5R65; anti-IL-5Rα antibody (5R65)) VH: QVQLVQSGAEVKKPGSSVKVSCKASGYTFTSYWINWVRQAPGQGLEWIGHIYPNKNENYYNHKFKDKATLTVDKSTNTAYMELSSLRSEDTAVYYCTRDYYGRSYYYAMDYWGQGTTLTVSS VL: DIQMTQSPSTLSASVGDRVTITCKASQNVGTAVAWYQQKPGKAPKLLIYWASTRHTGVPDRFSGSGSGTDFTLTISSLQPDDFATYYCQQFGRYPYTFGSGTKVEVK
5.95 | 0.000133 | 22400 | 5R65.18 (antibody, IgG1, V domains shown, IgG1) VH: QVQLVQSGAEVKKPGSSVKVSCKASGYTFTSYWINWVRQAPGQGLEWIGHIYPNKNENYYNHKFKDKATLTVDKSTNTAYMELSSLRSEDTAVYYCTREYYGRTYYSAMDYWGQGTTLTVSS VL: DIQMTQSPSTLSASVGDRVTITCKASQNVGTAVAWYQQKPGKAPKLLIYWASTRHTGVPDRFSGSGSGTDFTLTISSLQPDDFATYYCQQFGRYPYTFGSGTKVEVK
8.25 | 0.000201 | 24400 | 5R65.10 (antibody, IgG1, V domains shown, IgG1) VH: QVQLVQSGAEVKKPGSSVKVSCKASGYTFTSYWINWVRQAPGQGLEWIGHIYPNKNENYYNHKFKDKATLTVDKSTNTAYMELSSLRSEDTAVYYCTREYYGRSYYAAMDYWGQGTTLTVSS VL: DIQMTQSPSTLSASVGDRVTITCKASQNVGTAVAWYQQKPGKAPKLLIYWASTRHTGVPDRFSGSGSGTDFTLTISSLQPDDFATYYCQQFGRYPYTFGSGTKVEVK
8.64 | 0.000199 | 23000 | 5R65.14 (antibody, IgG1, V domains shown, IgG1) VH: QVQLVQSGAEVKKPGSSVKVSCKASGYTFTSYWINWVRQAPGQGLEWIGHIYPNKNENYYNHKFKDKATLTVDKSTNTAYMELSSLRSEDTAVYYCTREHYGRPYYNAMDYWGQGTTLTVSS VL: DIQMTQSPSTLSASVGDRVTITCKASQNVGTAVAWYQQKPGKAPKLLIYWASTRHTGVPDRFSGSGSGTDFTLTISSLQPDDFATYYCQQFGRYPYTFGSGTKVEVK
4.64 | 0.000147 | 31700 | 5R65.7 (antibody, IgG1, V domains shown, IgG1) VH: QVQLVQSGAEVKKPGSSVKVSCKASGYTFTSYWINWVRQAPGQGLEWIGHIYPNKNENYYNHKFKDKATLTVDKSTNTAYMELSSLRSEDTAVYYCTREFYGRQYYQAMDYWGQGTTLTVSS VL: DIQMTQSPSTLSASVGDRVTITCKASQNVGTAVAWYQQKPGKAPKLLIYWASTRHTGVPDRFSGSGSGTDFTLTISSLQPDDFATYYCQQFGRYPYTFGSGTKVEVK

biological target: T2, sIL-4Rα (soluble IL-4Rα) antigen protein (human, UniProt P24394 26-232); assay: BLI (Octet QKe), antibody on AHC sensor, sIL-4Rα in solution, 1:1 model
T2 construct: The ELISA and Octet assays used the bought protein (Sinobio 10402-H08H); also called CD124; sinobio 10402-H08H
Method: Antigen affinity of antibodies was analyzed through variation in the refractive index occurring when the antibody bound to the antigen was detached therefrom while the AHC (anti-human IgG Fc capture) sensor chip moved in the order of kinetic buffer, antibody dilution solution, kinetic buffer, antigen dilution solution, and kinetic buffer. Affinity was calculated with Octet Data Analysis software 11.0 in a 1:1 binding model.

Kd [nM] | koff [s⁻¹] | kon [M⁻¹ s⁻¹] | Binder
0.0748 | 0.00012 | 1.6e+06 | 4R.N5 (antibody, V domains shown, Converted from scFab to IgG1 and expressed in HEK293F) VH: EVQLLESGGGLVQPGGSLRLSCAASGFTFSRHAMAWVRQAPGKGLEWVSAITASGMSIYYADFAKGRFTISRDNSKNTLYLQMNSLRAEDTAVYYCARVHRAFDYWGQGTLVTVSS VL: QSVLTQPPSASGTPGQRVTISCSGSPLFPDSGSFNWYQQLPGTAPKLLIYADSHRPSGVPDRFSGSKSGTSASLAISGLRSEDEADYYCGTWDYSLNRYVLGGGTKLTVLG

From patent US20230357415A1 (AJOU UNIVERSITY INDUSTRY ACADEMIC COOPERATION FOUNDATION, published 2023)
